Test system: ApPPO1
Experiment: Herbicide tolerance test of ApPPO1 wild type and variants in PPO-deficient E. coli BT3(ΔPPO), growth on herbicide-containing LB agar
Format: cell-based, Auxenochlorella protothecoides
Conditions: relative to ApPPO1 WT, dark; for Herbicide tolerance, flumioxazin: up to 100 μM (FIGS. 7-12); for Herbicide tolerance, tiafenacil: up to 200 μM (FIGS. 7-12); for Herbicide tolerance, sulfentrazone: up to 400 μM (FIGS. 7-12)
Protocol: Then, the extent of tolerance was evaluated.

B1: R140A + V213C + Y422I: ApPPO1 (SEQ ID NO: 1) variant (protein)
chain: MPFTHLKPLNRLLGSPRARHPHVAPQAVSVTNTSTTRPGGRSSAPGIPGDAEYDVVIVGAGISGLTTAQALAKQYSDAVPRLLVTEARDCVGGNIITRRDGGYQWEEGPNSFQPSDAVLRAAVDAGVADRLVLGDPKAPAYVYWGGRLRATPSGPDVLTFDLLSLWGKLRAGLGAAGFKAPLPEREESVKEFVTRNLGEEVFQRLIEPFCSGCYAGDPAKLSMKAAFGKVYDLEKGGGSIVGGVLALMKARKQKPPEPRPADLPPKPKGQTVGSFDKGLVTLPSAIAEELGDRVVTGWKLESIDRSGDRFQLTYDTPQGRKKVSARSVALTVPAYTAASLLESRFPKLGKALSSIYYPPVASVALSYPETAILPERLGSDGHLAGFGQLHPRTQGVTTLGTIYASSLFPGRVPEGKVLLLSIFGGATNTRVATMPHGEIVSQVDKDLRKMLIRSDAESPHTVNVTVWPRAIPQFNVGHTDLIQEAKDDLASQGWQGLHLGGNYVAGVALGKCMEAGYKQAAELASHVKSLAT
modifications: Synthetic (Protoporphyrinogen IX oxidase (ApPPO1) of Auxenochlorella protothecoides)
- Herbicide tolerance, flumioxazin: +++++ (more than 10,000 fold higher tolerance)
- Herbicide tolerance, tiafenacil: +++++ (more than 10,000 fold higher tolerance)
- Herbicide tolerance, sulfentrazone: ++++ (1,000-9,999 fold higher tolerance)

B2: R140A + A215L + Y422M: ApPPO1 (SEQ ID NO: 1) variant (protein)
chain: MPFTHLKPLNRLLGSPRARHPHVAPQAVSVTNTSTTRPGGRSSAPGIPGDAEYDVVIVGAGISGLTTAQALAKQYSDAVPRLLVTEARDCVGGNIITRRDGGYQWEEGPNSFQPSDAVLRAAVDAGVADRLVLGDPKAPAYVYWGGRLRATPSGPDVLTFDLLSLWGKLRAGLGAAGFKAPLPEREESVKEFVTRNLGEEVFQRLIEPFCSGVYLGDPAKLSMKAAFGKVYDLEKGGGSIVGGVLALMKARKQKPPEPRPADLPPKPKGQTVGSFDKGLVTLPSAIAEELGDRVVTGWKLESIDRSGDRFQLTYDTPQGRKKVSARSVALTVPAYTAASLLESRFPKLGKALSSIYYPPVASVALSYPETAILPERLGSDGHLAGFGQLHPRTQGVTTLGTIYASSLFPGRVPEGKVLLLSMFGGATNTRVATMPHGEIVSQVDKDLRKMLIRSDAESPHTVNVTVWPRAIPQFNVGHTDLIQEAKDDLASQGWQGLHLGGNYVAGVALGKCMEAGYKQAAELASHVKSLAT
modifications: Synthetic (Protoporphyrinogen IX oxidase (ApPPO1) of Auxenochlorella protothecoides)
- Herbicide tolerance, flumioxazin: +++++ (more than 10,000 fold higher tolerance)
- Herbicide tolerance, tiafenacil: +++++ (more than 10,000 fold higher tolerance)
- Herbicide tolerance, sulfentrazone: ++++ (1,000-9,999 fold higher tolerance)

B3: R140A + V213C + Y422M: ApPPO1 (SEQ ID NO: 1) variant (protein)
chain: MPFTHLKPLNRLLGSPRARHPHVAPQAVSVTNTSTTRPGGRSSAPGIPGDAEYDVVIVGAGISGLTTAQALAKQYSDAVPRLLVTEARDCVGGNIITRRDGGYQWEEGPNSFQPSDAVLRAAVDAGVADRLVLGDPKAPAYVYWGGRLRATPSGPDVLTFDLLSLWGKLRAGLGAAGFKAPLPEREESVKEFVTRNLGEEVFQRLIEPFCSGCYAGDPAKLSMKAAFGKVYDLEKGGGSIVGGVLALMKARKQKPPEPRPADLPPKPKGQTVGSFDKGLVTLPSAIAEELGDRVVTGWKLESIDRSGDRFQLTYDTPQGRKKVSARSVALTVPAYTAASLLESRFPKLGKALSSIYYPPVASVALSYPETAILPERLGSDGHLAGFGQLHPRTQGVTTLGTIYASSLFPGRVPEGKVLLLSMFGGATNTRVATMPHGEIVSQVDKDLRKMLIRSDAESPHTVNVTVWPRAIPQFNVGHTDLIQEAKDDLASQGWQGLHLGGNYVAGVALGKCMEAGYKQAAELASHVKSLAT
modifications: Synthetic (Protoporphyrinogen IX oxidase (ApPPO1) of Auxenochlorella protothecoides)
- Herbicide tolerance, flumioxazin: +++++ (more than 10,000 fold higher tolerance)
- Herbicide tolerance, tiafenacil: +++++ (more than 10,000 fold higher tolerance)
- Herbicide tolerance, sulfentrazone: ++++ (1,000-9,999 fold higher tolerance)

B4: V213C + A215C + Y422I: ApPPO1 (SEQ ID NO: 1) variant (protein)
chain: MPFTHLKPLNRLLGSPRARHPHVAPQAVSVTNTSTTRPGGRSSAPGIPGDAEYDVVIVGAGISGLTTAQALAKQYSDAVPRLLVTEARDCVGGNIITRRDGGYQWEEGPNSFQPSDAVLRAAVDAGVADRLVLGDPKAPRYVYWGGRLRATPSGPDVLTFDLLSLWGKLRAGLGAAGFKAPLPEREESVKEFVTRNLGEEVFQRLIEPFCSGCYCGDPAKLSMKAAFGKVYDLEKGGGSIVGGVLALMKARKQKPPEPRPADLPPKPKGQTVGSFDKGLVTLPSAIAEELGDRVVTGWKLESIDRSGDRFQLTYDTPQGRKKVSARSVALTVPAYTAASLLESRFPKLGKALSSIYYPPVASVALSYPETAILPERLGSDGHLAGFGQLHPRTQGVTTLGTIYASSLFPGRVPEGKVLLLSIFGGATNTRVATMPHGEIVSQVDKDLRKMLIRSDAESPHTVNVTVWPRAIPQFNVGHTDLIQEAKDDLASQGWQGLHLGGNYVAGVALGKCMEAGYKQAAELASHVKSLAT
modifications: Synthetic (Protoporphyrinogen IX oxidase (ApPPO1) of Auxenochlorella protothecoides)
- Herbicide tolerance, flumioxazin: +++++ (more than 10,000 fold higher tolerance)
- Herbicide tolerance, tiafenacil: +++++ (more than 10,000 fold higher tolerance)
- Herbicide tolerance, sulfentrazone: ++++ (1,000-9,999 fold higher tolerance)

B5: R140A + A215C + Y422I: ApPPO1 (SEQ ID NO: 1) variant (protein)
chain: MPFTHLKPLNRLLGSPRARHPHVAPQAVSVTNTSTTRPGGRSSAPGIPGDAEYDVVIVGAGISGLTTAQALAKQYSDAVPRLLVTEARDCVGGNIITRRDGGYQWEEGPNSFQPSDAVLRAAVDAGVADRLVLGDPKAPAYVYWGGRLRATPSGPDVLTFDLLSLWGKLRAGLGAAGFKAPLPEREESVKEFVTRNLGEEVFQRLIEPFCSGVYCGDPAKLSMKAAFGKVYDLEKGGGSIVGGVLALMKARKQKPPEPRPADLPPKPKGQTVGSFDKGLVTLPSAIAEELGDRVVTGWKLESIDRSGDRFQLTYDTPQGRKKVSARSVALTVPAYTAASLLESRFPKLGKALSSIYYPPVASVALSYPETAILPERLGSDGHLAGFGQLHPRTQGVTTLGTIYASSLFPGRVPEGKVLLLSIFGGATNTRVATMPHGEIVSQVDKDLRKMLIRSDAESPHTVNVTVWPRAIPQFNVGHTDLIQEAKDDLASQGWQGLHLGGNYVAGVALGKCMEAGYKQAAELASHVKSLAT
modifications: Synthetic (Protoporphyrinogen IX oxidase (ApPPO1) of Auxenochlorella protothecoides)
- Herbicide tolerance, flumioxazin: +++++ (more than 10,000 fold higher tolerance)
- Herbicide tolerance, tiafenacil: +++++ (more than 10,000 fold higher tolerance)
- Herbicide tolerance, sulfentrazone: ++++ (1,000-9,999 fold higher tolerance)

Reference: patent publication US20220042033A1, “COMPOSITION AND METHOD FOR CONFERRING AND/OR ENHANCING TOLERANCE AGAINST HERBICIDES BY USING VARIANTS OF PPO” (FarmHannong Co., Ltd., priority 2017, published 2022)
